{"source": "paper PMC4479312"}
{"molecular_target": "integrin α4β7 (human α4 and β7 subunits co-expressed on 293T cells) (human) (UniProt P13612)", "sequence (P13612 34-1032, chain 1 of 2)": "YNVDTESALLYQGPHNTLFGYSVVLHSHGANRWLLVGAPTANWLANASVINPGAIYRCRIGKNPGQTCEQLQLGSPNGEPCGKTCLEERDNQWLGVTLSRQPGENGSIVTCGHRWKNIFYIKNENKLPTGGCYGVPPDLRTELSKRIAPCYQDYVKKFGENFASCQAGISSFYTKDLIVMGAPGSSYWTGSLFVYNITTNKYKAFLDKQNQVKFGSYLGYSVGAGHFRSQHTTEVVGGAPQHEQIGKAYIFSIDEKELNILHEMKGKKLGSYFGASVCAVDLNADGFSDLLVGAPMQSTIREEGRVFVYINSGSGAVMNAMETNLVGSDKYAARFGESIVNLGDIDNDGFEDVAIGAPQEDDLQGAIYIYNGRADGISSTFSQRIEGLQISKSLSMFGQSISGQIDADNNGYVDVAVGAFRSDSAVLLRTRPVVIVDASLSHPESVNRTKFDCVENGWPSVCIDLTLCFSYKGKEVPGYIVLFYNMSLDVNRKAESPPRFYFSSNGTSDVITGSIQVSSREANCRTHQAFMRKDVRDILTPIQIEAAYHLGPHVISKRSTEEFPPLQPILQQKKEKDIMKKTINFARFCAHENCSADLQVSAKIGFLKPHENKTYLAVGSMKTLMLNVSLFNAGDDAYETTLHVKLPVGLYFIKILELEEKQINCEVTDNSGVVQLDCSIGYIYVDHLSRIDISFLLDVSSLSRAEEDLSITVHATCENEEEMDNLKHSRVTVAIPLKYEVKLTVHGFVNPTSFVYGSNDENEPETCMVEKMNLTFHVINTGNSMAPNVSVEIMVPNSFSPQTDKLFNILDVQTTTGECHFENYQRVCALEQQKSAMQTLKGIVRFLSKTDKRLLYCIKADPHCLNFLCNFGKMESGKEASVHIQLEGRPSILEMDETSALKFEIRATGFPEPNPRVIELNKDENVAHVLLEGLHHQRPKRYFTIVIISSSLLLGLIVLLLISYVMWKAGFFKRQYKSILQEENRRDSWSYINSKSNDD", "sequence (P26010 20-798, chain 2 of 2, further chain)": "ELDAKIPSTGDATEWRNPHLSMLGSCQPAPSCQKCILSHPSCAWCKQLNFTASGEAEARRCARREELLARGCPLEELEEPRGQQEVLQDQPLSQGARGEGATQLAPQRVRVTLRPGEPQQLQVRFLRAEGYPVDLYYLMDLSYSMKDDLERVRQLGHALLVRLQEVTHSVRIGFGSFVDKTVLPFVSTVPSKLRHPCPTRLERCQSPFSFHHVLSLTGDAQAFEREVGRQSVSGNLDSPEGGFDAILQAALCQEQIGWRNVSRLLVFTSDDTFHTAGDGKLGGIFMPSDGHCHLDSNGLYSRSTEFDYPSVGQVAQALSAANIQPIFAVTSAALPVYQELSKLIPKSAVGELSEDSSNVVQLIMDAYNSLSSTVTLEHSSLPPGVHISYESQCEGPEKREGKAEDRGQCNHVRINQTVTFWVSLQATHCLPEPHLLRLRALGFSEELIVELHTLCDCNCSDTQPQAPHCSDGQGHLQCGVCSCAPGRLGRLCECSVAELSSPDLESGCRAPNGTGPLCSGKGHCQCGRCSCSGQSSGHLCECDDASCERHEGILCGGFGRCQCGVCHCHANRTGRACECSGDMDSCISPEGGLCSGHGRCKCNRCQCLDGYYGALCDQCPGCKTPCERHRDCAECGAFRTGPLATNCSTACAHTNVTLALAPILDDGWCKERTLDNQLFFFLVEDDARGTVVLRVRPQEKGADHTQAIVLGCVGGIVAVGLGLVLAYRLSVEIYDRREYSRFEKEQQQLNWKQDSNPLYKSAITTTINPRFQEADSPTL", "units": {"α4β7 dependence for replication (Act-1 mAb inhibition of p24 in ATRA-treated CD4+ T cells)": "%"}}
{"substance": "HIV-1 subtype C CAP88 transmitted/founder (T/F) envelope glycoprotein on infectious envelope clone virus (natural protein)", "α4β7 dependence for replication (Act-1 mAb inhibition of p24 in ATRA-treated CD4+ T cells)": "> 50"}
{"substance": "HIV-1 subtype C CAP200 transmitted/founder (T/F) envelope glycoprotein (SDV motif) on infectious envelope clone virus (natural protein)", "α4β7 dependence for replication (Act-1 mAb inhibition of p24 in ATRA-treated CD4+ T cells)": "> 50"}
{"substance": "HIV-1 subtype C CAP206 transmitted/founder (T/F) envelope glycoprotein on infectious envelope clone virus (natural protein)", "α4β7 dependence for replication (Act-1 mAb inhibition of p24 in ATRA-treated CD4+ T cells)": "> 50"}
{"substance": "HIV-1 subtype C CAP225 transmitted/founder (T/F) envelope glycoprotein (SDI motif) on infectious envelope clone virus (natural protein)", "α4β7 dependence for replication (Act-1 mAb inhibition of p24 in ATRA-treated CD4+ T cells)": "> 50"}
